# Assay results: patent US20190248900A1 (Y BIOLOGICS, published 2019)
# T1: ITGA6-Fc
# T1 construct: Fc fusion
# T1 sequence (P23229 whole entry, species assumed, looked up): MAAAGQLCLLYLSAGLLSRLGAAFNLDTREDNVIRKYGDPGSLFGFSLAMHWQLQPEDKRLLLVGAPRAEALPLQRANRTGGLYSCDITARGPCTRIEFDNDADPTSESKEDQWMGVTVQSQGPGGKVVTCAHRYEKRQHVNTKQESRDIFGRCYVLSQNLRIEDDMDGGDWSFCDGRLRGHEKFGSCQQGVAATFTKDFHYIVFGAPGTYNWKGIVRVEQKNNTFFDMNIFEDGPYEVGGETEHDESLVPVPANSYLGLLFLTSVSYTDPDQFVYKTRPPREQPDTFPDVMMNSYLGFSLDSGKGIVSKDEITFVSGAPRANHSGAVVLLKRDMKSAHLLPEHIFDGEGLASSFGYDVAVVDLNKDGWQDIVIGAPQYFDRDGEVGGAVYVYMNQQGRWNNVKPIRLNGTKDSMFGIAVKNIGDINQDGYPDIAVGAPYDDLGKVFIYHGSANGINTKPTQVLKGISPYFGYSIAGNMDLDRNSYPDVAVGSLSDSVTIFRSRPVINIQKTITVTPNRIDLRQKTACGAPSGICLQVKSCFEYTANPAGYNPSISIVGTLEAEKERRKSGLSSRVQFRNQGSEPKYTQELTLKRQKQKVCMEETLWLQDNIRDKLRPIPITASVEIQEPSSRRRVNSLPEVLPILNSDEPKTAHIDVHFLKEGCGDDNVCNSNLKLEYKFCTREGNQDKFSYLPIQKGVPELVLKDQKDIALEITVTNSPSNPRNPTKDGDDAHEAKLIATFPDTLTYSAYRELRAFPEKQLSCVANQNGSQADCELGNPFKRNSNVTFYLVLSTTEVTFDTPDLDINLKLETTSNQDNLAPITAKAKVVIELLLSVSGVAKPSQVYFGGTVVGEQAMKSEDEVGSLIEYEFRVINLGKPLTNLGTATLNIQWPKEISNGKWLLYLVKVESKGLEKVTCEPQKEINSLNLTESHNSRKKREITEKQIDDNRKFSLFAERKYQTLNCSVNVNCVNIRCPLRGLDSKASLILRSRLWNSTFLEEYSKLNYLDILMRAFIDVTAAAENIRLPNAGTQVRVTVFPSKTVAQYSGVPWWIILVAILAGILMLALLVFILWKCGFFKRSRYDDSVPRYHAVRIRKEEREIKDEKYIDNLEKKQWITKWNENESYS
# T2: rat PD1 protein (rat, UniProt D3ZIN8 25-169)
# T2 construct: also called rat PD-1 proteins
# T2 sequence: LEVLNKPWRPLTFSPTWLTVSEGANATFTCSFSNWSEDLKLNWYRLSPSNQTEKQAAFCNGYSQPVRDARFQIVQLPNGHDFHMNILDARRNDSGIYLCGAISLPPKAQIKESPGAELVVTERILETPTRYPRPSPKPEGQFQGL
# How the values were obtained:
# PD1-hFc [1] = biological target: T3, PD1-hFc (human, UniProt Q15116 25-170); experiment: SPR ProteOn XPR36, PD1-hFc immobilised, antibody as analyte
# T3 construct: extracellular domain; also called PD1-hFc protein; Human PD-1-Fc (S1420, Y-Biologics)
# Method: A ProteOn XPR36 (BioRad) instrument was used. The GLC sensor chip (BioRad) was mounted on the instrument and washed with PBST buffer, and the carboxymethyldextran surface was activated with an EDC/sulfo-NHS mixed solution. PD1-hFc dissolved at a concentration of 5 ug/ml in a 10 mM sodium acetate buffer solution (pH 5.0) was injected and immobilized on the GLC sensor chip.
# In order to deactivate the activated carboxyl groups that remain unreacted with the PD1 protein, 1 M ethanolamine was flowed and 10 mM glycine (pH 2.0) was injected in order to wash proteins that remain unbound to the sensor chip.
# The equilibrium dissociation constant (KD) was calculated by plotting and fitting the sensogram data in the equilibrium state depending on concentration.
# [2] = biological target: T4, human PD-1 (NM_005018.2) over-expressed on cells (human, UniProt Q15116 25-288); experiment: cell-based or functional assay
# [3] = biological target: T4, human PD-1 (NM_005018.2) over-expressed …; experiment: cell-based or functional assay; remark: listed apart in the source
# M7 = biological target: T5, M7; experiment: ELISA, 1 ug/ml
# T5 construct: also called PD1 mutant M7
# ITGA6-Fc = biological target: T1, ITGA6-Fc; experiment: ELISA, 1 ug/ml
# M11 = biological target: T6, M11; experiment: ELISA, 1 ug/ml
# T6 construct: also called PD1 mutant M11
# [4] = biological target: T7, PD-1-His (S1352, Y-Biologics) (UniProt Q15116 25-170, limits assumed); experiment: competition ELISA: PD-L2-Fc coated, PD-1-His as binder, antibody as competitor
# T7 construct: not shown: His tag
# Method: (§1) Human PD-1-Fc (S1420, Y-Biologics) or PD-L2-Fc (#10292-H02H, Sino) was added to wells of a 96-well immuno microplate (#439454, Thermo) and then washed three times with PBS containing 0.05% tween-20 (#P9416, Sigma-Aldrich), followed by allowing to stand in a cleaning solution containing 4% skim milk (#232120, Becton, Dickinson and Company) at room temperature for 1 hour to block non-specific binding. […] After the resulting product was subjected to the same washing method as above, the anti-Biotin-His antibody (#MA1-21315-BTIN, Thermo) diluted to 1:2000 was added to the well of the microplate, allowed to react at room temperature for 1 hour, streptavidin poly-HRP antibody (#21140, Pierce) diluted to 1:5000 was added to the well of microplate, reacted at room temperature for 1 hour and then washed in the same manner. 100 ul of a TMB substrate solution (#T0440, Sigma-Aldrich) was added to the reaction product, light was shielded, and the reaction product was allowed to stand at room temperature for 3 minutes, 50 μL of 2.5 M sulfuric acid (#S1478, Samchun) was added to stop the reaction, and absorbance was measured at 450 nm using a spectrophotometer (*GM3000, Glomax® Discover System Promega).
# [5] = biological target: T4, human PD-1 (NM_005018.2) over-expressed …; experiment: flow cytometry on cells over-expressing human PD-1, fit of Geometric Mean
# PD1-hFc [6] = biological target: T3, PD1-hFc; experiment: ProteOn XPR36; legend names PD1-hFc, the sheet names the immobilised protein PD-1 C-his
# rat PD1 protein = biological target: T2, rat PD1 protein; experiment: SPR ProteOn XPR36; format for rat PD1 not described
# PD1-hFc [7] = biological target: T3, PD1-hFc; experiment: competition ELISA: PD1-Fc coated, PDL1-His as binder, antibody as competitor
# Method: as §1
# monkey PD1 protein = biological target: T8, monkey PD1 protein (monkey); experiment: SPR ProteOn XPR36; format for monkey PD1 not described
# T8 construct: also called monkey PD-1 proteins
binder,measurement,setting,value
"PD1-49A2(A/1B2) (antibody, V domains shown, scFv-phage in the screening ELISA; whole IgG in the other assays; also called 49A2-1B2; PD1 49A2 1B2) VH: QVQLVESGGGVVQPGRSLRLSCAASGFTFLRYAMHWVRQAPGKGLEWVAVISYDGQDKYYADSVKGRFTISRDNSKNTLYLQMNSLRAEDTAVYYCTTTTFDSWGRGTLVTVSS VL: DIVMTQTPLSLPVTPGEPASISCRSSQSLLDSDDGNTYLDWYLQKPGQSPQLLIYTLSHRASGVPDRFSGSGSGTEFNLRISRVEAEDVGIYYCMQRVEFPFTFGQGTKLEIK",Kd,PD1-hFc [1],0.166 nM
same,koff,PD1-hFc [1],6.39e-05 s⁻¹
same,kon,PD1-hFc [1],385000 M⁻¹ s⁻¹
same,EC50,[2],2.03 nM
same,"EC50 [nM], PD1/PD-L1 blockade bioassay",[3],1.3 nM
"PD1-45D6(A/5B5) (antibody, V domains shown, scFv-phage in the screening ELISA; whole IgG in the other assays; also called 45D6-5B5; PD1 45D6 5B5) VH: QVQLVESGGGVVQPGRSLRLSCAASGFTFRTYAMHWVRQAPGKGLEWVAVISYDGNDKYYADSVKGRFTISRDNSKNTLYLQMNSLRAEDTAVYYCVPTTFEYWGQGTLVTVSS VL: DIVMTQTPLSLPVMPGEAASISCRSSQSLLDSEDGNTYLDWYLQKPGQSPQLLIYTLSHRASGVPDRFSGSGSGTDFTLKISRVEADDVGIYYCMQRVEFPFTFGQGTKVEIK",Kd,PD1-hFc [1],0.0477 nM
same,koff,PD1-hFc [1],1.41e-05 s⁻¹
same,kon,PD1-hFc [1],296000 M⁻¹ s⁻¹
same,EC50,[2],0.906 nM
same,"EC50 [nM], PD1/PD-L1 blockade bioassay",[3],1.68 nM
"PD1-49A2(A/2B9) (antibody, V domains shown, scFv-phage in the screening ELISA; whole IgG in the other assays; also called 49A2-2B9; 49A2 (2B9)) VH: QVQLVESGGGVVQPGRSLRLSCAASGFTFLRYAMHWVRQAPGKGLEWVAVISYDGRYKYYADSVKGRFTISRDNSKNTLYLQMNSLRAEDTAVYYCTTTTFDSWGQGTLVTVSS VL: DIVMTQTPLSLPVTPGEAASISCRSSQSLLDSEDGNTYLDWYLQKPGQSPQLLIYTLSHRASGVPDRFSGSGSGTDFTLEISRVEAEDVGVYYCMQRRDFPFTFGQGTKVDIK",kon,PD1-hFc [1],377000 M⁻¹ s⁻¹
same,OD490,M7,0.083
same,OD490,ITGA6-Fc,0.1
same,OD490,M11,0.433
same,IC50,[4],59 nM
same,Bmax,[5],2900
same,Kd,[5],6.2 nM
same,EC50,[2],0.689 nM
same,Kd,PD1-hFc [6],< 0.001 nM
same,koff,PD1-hFc [6],< 1e-07 s⁻¹
same,Kd,rat PD1 protein,4.23 nM
same,koff,rat PD1 protein,0.000625 s⁻¹
same,kon,rat PD1 protein,148000 M⁻¹ s⁻¹
same,"EC50 [nM], PD1/PD-L1 blockade bioassay",[3],1.23 nM
same,IC50,PD1-hFc [7],6.38 nM
same,Kd,monkey PD1 protein,0.001 nM
same,koff,monkey PD1 protein,1e-07 s⁻¹
same,kon,monkey PD1 protein,185000 M⁻¹ s⁻¹
"PD1-45D6(A/5B2) (antibody, V domains shown, scFv-phage in the screening ELISA; whole IgG in the other assays; also called 45D6-5B2; PD1 45D6 5B2) VH: QVQLVESGGGVVQPGRSLRLSCAASGFTFSFYAMHWVRQAPGKGLEWVAVISYDGNDKYYADSVKGRFTISRDNSKNTLYLQMNSLRAEDTAVYYCVPTTFEYWGQGTLVTVSS VL: DIVMTQTPLSPPVTPGEPASISCRSSQSLLDSDDGNTYLDWYLQKPGQSPQLLIYTLSHRASGVPDRFSGSGSGTDFTLEISRVEAEDVGVYYCMQRRDFPFTFGQGTKLDIK",Kd,PD1-hFc [1],0.0582 nM
same,koff,PD1-hFc [1],1.93e-05 s⁻¹
same,kon,PD1-hFc [1],332000 M⁻¹ s⁻¹
same,OD490,M7,0.238
same,OD490,ITGA6-Fc,0.124
same,OD490,M11,0.446
same,IC50,[4],75.4 nM
same,EC50,[2],1.66 nM
same,Kd,rat PD1 protein,4.59 nM
same,koff,rat PD1 protein,0.000863 s⁻¹
same,kon,rat PD1 protein,188000 M⁻¹ s⁻¹
same,"EC50 [nM], PD1/PD-L1 blockade bioassay",[3],1.48 nM
same,IC50,PD1-hFc [7],3.09 nM
same,kon,monkey PD1 protein,208000 M⁻¹ s⁻¹
"PD1-49A2(A/1H8) (antibody, V domains shown, scFv-phage in the screening ELISA; whole IgG in the other assays; also called 49A2-1H8; PD1 49A2 1H8) VH: QVQLVESGGGVVQPGRSLRLSCAASGFTFKTYAMHWVRQAPGKGLEWVAVISYDGQHKYYADSVKGRFTISRDNSKNTLYLQMNSLRAEDTAVYYCTTTTFDSWGQGTLVTVSS VL: DIVMTQTPLSLPVTPGEPASISCRSSQSLLDRDGGHTYVDWYLQKPGQSPRLLIYTLSHRALGVPDRFSGSGSGTDFTLKISRVEADDVGLYYCMQRIEFPFTFGQGTKVEIK",Kd,PD1-hFc [1],0.0124 nM
same,koff,PD1-hFc [1],2.74e-06 s⁻¹
same,kon,PD1-hFc [1],220000 M⁻¹ s⁻¹
same,EC50,[2],1.45 nM
same,"EC50 [nM], PD1/PD-L1 blockade bioassay",[3],1.21 nM
"PD1-49A2(A/2A6) (antibody, V domains shown, scFv-phage in the screening ELISA; whole IgG in the other assays; also called 49A2-2A6; PD1 49A2 2A6) VH: QVQLVESGGGVVQPGRSLRLSCAASGFTFKYYAMHWVRQAPGKGLEWVTVISYDGQYKYYADSVKGRFTISRDNSKNTLYLQMNSLRAEDTAVYYCTTTTFDSWGQGTLVTVSS VL: DIVMTQTPLSLPVTPGEAASISCRSSQSLLDSEDGNTYLDWYLQRPGQSPQLLIYTLSHRASGVPGRFSGSGSGTEFNLRISRVEAEDVGIYYCMQRVEFPFTFGQGTKVEIK",Kd,PD1-hFc [1],0.0691 nM
same,koff,PD1-hFc [1],2.14e-05 s⁻¹
same,kon,PD1-hFc [1],310000 M⁻¹ s⁻¹
same,EC50,[2],1.67 nM
same,"EC50 [nM], PD1/PD-L1 blockade bioassay",[3],1.51 nM
"PD1-62E1 (antibody, V domains shown) VH: QVQLVESGGDLVKPGRSLRLSCTGSGFTFGDHPLTWVRQIPGKGLEWVGFIRSKAYGETTEYAASVKGRFTISRDDSKSIAYLQMNSLRAEDTAVYYCASVSYCSGGSCYQGTFDYWGQGTLVTVSS VL: DIQMTQSPAILSLSPGERATLSCRASQSVTSDVAWYQHIRGQAPRLLIYDASNRASGIPARFSGGGSGTEFTLTISSLEPEDFAVYYCQQYNNWPLTFGGGTKVEIK",IC50,[4],314 nM
same,"EC50 [nM], PD1/PD-L1 blockade bioassay",[3],2.73 nM
same,IC50,PD1-hFc [7],2.89 nM
"mPDL2-mFC (Fc fusion, mouse (prefix m on the sheet), UniProt Q9WUL5 20-221, looked up, mFC fusion) ligand fused to Fc: LFTVTAPKEVYTVDVGSSVSLECDFDRRECTELEGIRASLQKVENDTSLQSERATLLEEQLPLGKALFHIPSVQVRDSGQYRCLVICGAAWDYKYLTVKVKASYMRIDTRILEVPGTGEVQLTCQARGYPLAEVSWQNVSVPANTSHIRTPEGLYQVTSVLRLKPQPSRNFSCMFWNAHMKELTSAIIDPLSRMEPKVPRTW",OD490,ITGA6-Fc,0.3
same,OD490,M11,1.7
